Assay results reported in PMC3466176, “Aminopropyltransferases Involved in Polyamine Biosynthesis Localize Preferentially in the Nucleus of Plant Cells” (PLoS ONE, 2012).

B1: His-tagged recombinant spermidine synthase 1 (SPDS1) (enzyme, Arabidopsis thaliana, UniProt Q9ZUB3 1-334, looked up)
chain: MDAKETSATDLKRPREEDDNGGAATMETENGDQKKEPACFSTVIPGWFSEMSPMWPGEAHSLKVEKVLFQGKSDYQDVIVFQSATYGKVLVLDGVIQLTERDECAYQEMITHLPLCSIPNPKKVLVIGGGDGGVLREVARHASIEQIDMCEIDKMVVDVSKQFFPDVAIGYEDPRVNLVIGDGVAFLKNAAEGSYDAVIVDSSDPIGPAKELFEKPFFQSVARALRPGGVVCTQAESLWLHMDIIEDIVSNCREIFKGSVNYAWTSVPTYPSGVIGFMLCSTEGPDVDFKHPLNPIDESSSKSNGPLKFYNAEIHSAAFCLPSFAKKVIESKAN
notes: Arabidopsis spermidine synthase 1 (SPDS1, At1g23820); The insert has no stop codon, so a C-terminal extension from the vector is likely (surmised); also called recombinant His-tagged aminopropyltransferase
B2: His-tagged recombinant spermidine synthase 2 (SPDS2) (enzyme, Arabidopsis thaliana, UniProt O48661 1-340, looked up)
chain: MSSTQEASVTDLPVKRPREAEEDNNGGAMETENGGGEIKEPSCMSSIIPGWFSEISPMWPGEAHSLKVEKILFQGKSDYQDVIVFQSATYGKVLVLDGVIQLTERDECAYQEMITHLPLCSISNPKKVLVIGGGDGGVLREVARHSSVEQIDICEIDKMVVDVAKQYFPNVAVGYEDPRVNLIIGDGVAFLKNAAEGTYDAVIVDSSDPIGPAKELFEKPFFESVNRALRPGGVVCTQAESLWLHMDIIEDIVSNCRDIFKGSVNYAWTSVPTYPSGVIGFMLCSSEGPQVDFKKPVSLIDTDESSIKSHCPLKYYNAEIHSAAFCLPSFAKKVIDSKAN
notes: Arabidopsis spermidine synthase 2 (SPDS2, At1g70310); The Protease 3C site lies before the start ATG, and no cleavage is reported; The insert has no stop codon, so a C-terminal extension from the vector is likely (surmised); also called recombinant His-tagged aminopropyltransferase
B3: His-tagged recombinant spermine synthase (SPMS) (enzyme, Arabidopsis thaliana, UniProt Q94BN2 1-359, looked up)
chain: MEGDVGIGLVCQNTMDGKASNGNGLEKTVPSCCLKAMACVPEDDAKCHSTVVSGWFSEPHPRSGKKGGKAVYFNNPMWPGEAHSLKVEKVLFKDKSDFQEVLVFESATYGKVLVLDGIVQLTEKDECAYQEMIAHLPLCSISSPKNVLVVGGGDGGVLREISRHSSVEVIDICEIDKMVIDVSKKFFPELAVGFDDPRVQLHIGDAAEFLRKSPEGKYDAIIVDSSDPVGPALALVEKPFFETLARALKPGGVLCNMAESMWLHTHLIEDMISICRQTFKSVHYAWSSVPTYPSGVIGFVLCSTEGPAVDFKNPINPIEKLDGAMTHKRELKFYNSDMHRAAFALPTFLRREVASLLAS
notes: Arabidopsis spermine synthase (SPMS, At5g53120); The Protease 3C site lies before the start ATG, and no cleavage is reported; The insert has no stop codon, so a C-terminal extension from the vector is likely (surmised); also called recombinant His-tagged aminopropyltransferase

Molecular target: the molecule itself
Experiment: SEC; 50 to 100 µg of each affinity purified His-tagged enzyme alone on Superdex 200 10/300 GL, 0.2 mL/min, 20 mM Tris-HCl pH 7.6, 150 mM NaCl; fractions followed by absorbance at 280 nm

Stoichiometry N, 2:
B1, B2, B3
